The target of test [1] is T1, L1 (DV1-GV4), soluble human Vδ1/Vγ4 γδ TCR heterodimer in leucine zipper format (human).
T1 construct: Biotinylated in the DELFIA ranking; also called Antigen L1 (TRDV1/TRGV4); human DV1-GV4; not shown: gamma chain: Vγ4 (TRGV4) domain on a TCR constant region, leucine zipper, histidine tag
The test is described as follows: SPR (Reichert 4SPR), antibody on Protein A chip, Vδ1 heterodimer at 6.25-100 nM as analyte.

For test [2], the target named is T2, Cyno DV1/GV77 antigen, recombinant cynomolgus Vδ1 heterodimer (cynomolgus monkey).
T2 construct: also called cyno TRDV1; Cyno DV1-77; not shown: delta CDR3/J, TCR constant region, zipper and tag; the whole gamma chain GV77
T2 sequence (delta, as listed by the source limits assumed): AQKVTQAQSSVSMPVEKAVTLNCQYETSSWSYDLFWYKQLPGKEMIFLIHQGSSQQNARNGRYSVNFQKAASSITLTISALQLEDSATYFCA
The description is as above.

The target in test [3] is T3, Vδ1 chain of the γδ TCR on human Vδ1 γδ T cells (human).
T3 construct: whole, on cells; also called cell surface Vδ1 TCR; Vδ1-positive γδ T cells
T3 sequence (A0A1B0GX56 22-115, stated change not applied): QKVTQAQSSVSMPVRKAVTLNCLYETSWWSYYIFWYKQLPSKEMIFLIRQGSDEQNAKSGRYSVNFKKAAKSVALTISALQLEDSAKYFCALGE
The test is described as follows: flow cytometry on Vδ1 γδ T-cells, anti-human IgG secondary antibody. A general note: A flow cytometer gives signals particle by particle.
Description: (§1) After washing, cells were incubated for a further 15 minutes with anti-human IgG secondary antibodies before washing and fixing. The amount of antibody bound to each cell type was determined by flow cytometry.

The target in test [4] is T3, Vδ1 chain of the γδ TCR on human Vδ1 γδ …. The test is described as follows: flow cytometry on Vδ1 γδ T-cells, anti-human IgG secondary antibody, % IgG bound cells.
Description: as §1
Test [5] has the same target. The test is described as follows: flow cytometry, Vδ1 γδ T cells of donor TS164, mAb titrated up to about 500 nM at 4 C, anti-human IgG detection.
Description: All incubation steps were performed at 4° C. and mAb binding was determined using flow cytometry to measure the median level of fluorescence. Logarithmic four parameter dose-response curves were fitted using GraphPad Prism 9. […] For Vδ1-positive γδ T cell, data is represented as the mean two donors.
A range of target cells were assayed to determine the specificity and affinity of Vδ1 mAb binding. This included expanded skin-derived Vδ1 γδ T-cells, HEK293T cells, Raji cells, and multiple leukocyte subsets within human primary blood mononuclear cells. Adherent or semi-adherent cells (skin-derived Vδ1 γδ T-cells, HEK293T) were detached from tissue culture flask and resuspended in PBS. Similarly, non-adherent cell types (Raji, PBMC), were harvested and resuspended in PBS. Cells were seeded at a final density of 100,000 cells per well in v-bottom 96-well plates. Cells underwent centrifugation and the cell pellets were resuspended in FcR blocking reagent according to the manufacturer's instructions, and incubated for 20 minutes at 4C prior to a further wash. […] To determine the quantity of mAb bound to the cell surface, the cells were then stained with a murine anti-human IgG secondary antibody, conjugated to APC (dilution: 1:100). For Vδ1 γδ T-cells, HEK293T and Raji, the cells were also stained solely with a viability dye.
Another test concerns the target T4, Recombinant human PD-1 (human, UniProt Q15116 25-167, limits assumed).
T4 construct: also called programmed cell death protein 1
The test is described as follows: SPR, Reichert 4SPR; antibody captured on Protein A chip, human PD-1 flown over. A general note: In SPR one partner is held on a chip, and binding of the other changes the refractive index at the surface.

Test [6] concerns the target T3, Vδ1 chain of the γδ TCR on human Vδ1 γδ …. Description: flow cytometry on Vδ1 γδ T-cells, anti-human IgG secondary antibody, % cells bound IgG.
Description: as §1
In test [7] the target is T5, 4-1BB on activated CD8 T-cells (human, UniProt Q07011).
T5 construct: also called 4-1BB+ CD8 T-cells
T5 sequence (Q07011 24-255 limits assumed): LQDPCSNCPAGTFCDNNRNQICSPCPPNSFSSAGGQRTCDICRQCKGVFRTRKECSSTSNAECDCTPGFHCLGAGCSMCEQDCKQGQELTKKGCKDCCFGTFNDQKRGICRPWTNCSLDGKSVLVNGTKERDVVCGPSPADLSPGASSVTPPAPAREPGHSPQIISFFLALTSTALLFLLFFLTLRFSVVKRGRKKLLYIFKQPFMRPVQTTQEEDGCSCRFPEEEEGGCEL
Description: flow cytometry on anti-CD3/anti-CD28-activated CD8 T-cells, anti-human IgG secondary antibody, % cells bound IgG.

Test [8] deals with T1, L1 (DV1-GV4), soluble human Vδ1/Vγ4 γδ …. The test is described as follows: SPR (Reichert 4SPR), antibody on Protein A chip, antigen flown over.
Description: (§2) Recombinant human Vδ1 heterodimer or human OX40 was flown over the cell at a top concentration of 100 nM.
For test [9] the target is unchanged. The test is described as above. The source holds these as a separate data set.
Description: (§3) Recombinant human Vδ1 heterodimer or human PD-1 was flown over the cell at a top concentration of 100 nM.
For another test, the target named is T6, Recombinant human TIGIT (human, UniProt Q495A1 22-141).
T6 construct: also called T cell immunoreceptor with Ig and ITIM domains
T6 sequence (looked up): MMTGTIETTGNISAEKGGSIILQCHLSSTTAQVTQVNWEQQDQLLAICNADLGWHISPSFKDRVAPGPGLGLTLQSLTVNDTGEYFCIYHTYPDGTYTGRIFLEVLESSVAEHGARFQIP
Description: SPR, Reichert 4SPR; antibody captured on Protein A chip, human TIGIT flown over.

Test [10] has as its target T1, L1 (DV1-GV4), soluble human Vδ1/Vγ4 γδ …. The test is described as follows: SPR (Reichert 4SPR), antibody on Protein A chip, antigen flown over. The source holds these as a separate data set.
Description: (§4) Recombinant human Vδ1 heterodimer or human 4-1BB was flown over the cell at a top concentration of 100 nM.
Test [11] addresses T3, Vδ1 chain of the γδ TCR on human Vδ1 γδ …. The test is described as follows: cell-based or functional assay.
In the next test the target is T7, Recombinant human 4-1BB (human, UniProt Q07011 24-186).
T7 construct: also called CD137
T7 sequence (Q07011 24-186 limits assumed): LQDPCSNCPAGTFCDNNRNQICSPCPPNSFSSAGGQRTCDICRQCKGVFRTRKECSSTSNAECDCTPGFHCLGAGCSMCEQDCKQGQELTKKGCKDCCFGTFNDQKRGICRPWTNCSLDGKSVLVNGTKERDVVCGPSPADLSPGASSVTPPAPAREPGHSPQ
Description: SPR, Reichert 4SPR; antibody captured on Protein A chip, human 4-1BB flown over.

A further test has as its target T8, Recombinant human OX40 (human, UniProt P43489 29-216, limits assumed).
T8 construct: also called CD134
T8 sequence (looked up): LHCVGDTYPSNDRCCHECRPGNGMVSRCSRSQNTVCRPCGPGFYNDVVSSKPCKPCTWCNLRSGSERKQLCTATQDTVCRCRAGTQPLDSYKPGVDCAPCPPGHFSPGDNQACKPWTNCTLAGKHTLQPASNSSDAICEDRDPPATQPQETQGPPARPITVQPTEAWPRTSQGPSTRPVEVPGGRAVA
Description: SPR, Reichert 4SPR; antibody captured on Protein A chip, human OX40 flown over.

The target in test [12] is T1, L1 (DV1-GV4), soluble human Vδ1/Vγ4 γδ …. Description: SPR (Reichert 4SPR), antibody on Protein A chip, antigen flown over. The source holds these as a separate data set.
Description: (§5) Recombinant human Vδ1 heterodimer or human TIGIT was flown over the cell at a top concentration of 100 nM.
The target in test [13] is T3, Vδ1 chain of the γδ TCR on human Vδ1 γδ …. Description: flow cytometry, anti-human IgG secondary antibody, Vδ1 γδ T-cells.
Description: (§6) Initially CD4 and CD8 T-cells were negatively selected by magnetic sorting from PBMC buffy coats extracted from whole blood. […] After washing, cells were incubated for a further 15 minutes with anti-human IgG secondary antibodies before washing and fixing. The amount of antibody bound to each cell type was determined by flow cytometry.
For test [14], the target named is T9, TIGIT on activated CD8 T-cells (human, UniProt Q495A1).
T9 sequence (receptor chain, looked up): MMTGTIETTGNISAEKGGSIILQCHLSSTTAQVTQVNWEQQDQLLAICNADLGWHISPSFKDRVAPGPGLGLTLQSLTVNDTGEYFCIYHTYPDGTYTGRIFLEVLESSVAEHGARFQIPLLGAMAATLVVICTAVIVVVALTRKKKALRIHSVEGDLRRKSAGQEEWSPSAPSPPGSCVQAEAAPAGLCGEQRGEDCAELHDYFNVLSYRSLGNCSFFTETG
Description: flow cytometry, anti-human IgG secondary antibody, activated CD8 T-cells.
Description: as §6

The target in test [15] is T10, Her2 on Her2+ breast cancer cells (SK-BR-3, BT-474) (human, UniProt P04626 23-1255).
T10 construct: whole, on cells; also called ErbB-2; CD340
The test is described as follows: flow cytometry on SK-BR-3 cells, anti-human IgG secondary antibody.

The target of test [16] is T11, FAPα on FAPα+ fibroblasts (human, UniProt Q12884 1-760).
T11 construct: whole, on cells; also called FAPα+ target cells (BJ fibroblasts, human dermal fibroblasts)
The test is described as follows: flow cytometry on BJ fibroblasts, anti-human Fc secondary antibody, % IgG bound cells.
Description: After washing, cells were incubated for a further 15 minutes with anti-human Fc secondary antibodies before washing and fixing. The amount of antibody bound to each cell type was determined by flow cytometry.

The values that follow come from patent US20230028110A1 (ADAPTATE BIOTHERAPEUTICS, published 2023).

In general, Kd refers to the free concentration of one partner at which half of the binding sites on the other are occupied at equilibrium, for simple one-to-one binding. As a reminder, the EC50 (read off the curve) is the midpoint of the concentration-response curve. A high value points to a need for much substance.

T1 sequence (main, as listed by the source): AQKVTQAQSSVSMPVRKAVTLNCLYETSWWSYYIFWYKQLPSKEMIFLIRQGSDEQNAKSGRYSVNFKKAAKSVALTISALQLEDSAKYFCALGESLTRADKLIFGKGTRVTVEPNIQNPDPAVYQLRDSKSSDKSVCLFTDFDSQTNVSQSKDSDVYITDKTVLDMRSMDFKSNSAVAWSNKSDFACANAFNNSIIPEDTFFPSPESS
T4 sequence (Q15116 25-167 limits assumed): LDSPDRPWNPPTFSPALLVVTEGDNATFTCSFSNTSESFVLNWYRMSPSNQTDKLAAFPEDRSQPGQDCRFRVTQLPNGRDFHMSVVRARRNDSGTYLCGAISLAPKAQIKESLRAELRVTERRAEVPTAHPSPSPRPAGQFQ
Description for Recombinant human 4-1BB: as §4
Description for Recombinant human OX40: as §2
Description for Recombinant human PD-1: as §3
Description for Recombinant human TIGIT: as §5

B1: ADT1-4-2 (antibody, IgG1, V domains shown)
VH: EVQLQQSGPGLVKPSQTLSLTCAISGDSVSSKSAAWNWIRQSPSRGLEWLGRTYYRSKWSTDYAASVKSRITINPDTSKNQLSLQLNSVTPEDTAVYYCARTWVGYVDRWGQGTLVTVSS
VL: DIQMTQSPPALSASVGDRVTITCRASQDINDWLAWYQHKPGKAPKLLIYDASSLESGVPLRFSGSGSGTEFTLTISSLQPDDFATYYCQQKYSAPQVTFGQGTRLEIK
notes: IgG1
For the molecule B1, the Kd in test [1] was 0.34 nM; in test [2] it was 2.6 nM; in test [8], 1.25 nM; in test [9], 0.29 nM; in test [10], 1.25 nM; in test [12] it was 0.29 nM. In addition, the “EC50 (read off the curve)” value in test [3] is approximately 5 nM; in [4], approximately 0.3 nM; in [5], approximately 2 nM; in test [6] it was approximately 0.2 nM; in test [13], approximately 0.2 nM. In addition, the binding result was “no binding” with Recombinant human PD-1; “no binding (tested: 200 nM)” in test [7]; “no binding” in the test with Recombinant human TIGIT; “no binding” with Recombinant human 4-1BB; “no binding” with Recombinant human OX40; “no binding (tested: 200 nM)” in [14]. In addition, the binding result in test [15] is “no binding (tested: about 300 nM)”; in [16], “no binding (tested: about 70 nM)”. Also, the “IC50 (read off the curve), Vδ1 TCR downregulation, γδ T-cells with FAPα+ fibroblasts” value in test [11] was approximately 2 nM.
